The source of these data is patent US20040081651A1 (Biogen, published 2004).

Test [1] concerns the target T1, human VLA-1 (α1β1 integrin) on K562 cells transfected with the α1 integrin subunit (human, UniProt P56199 29-1179; P05556 21-798).
T1 construct: whole, on cells; also called huVLA-1; K562-α1
Kind of test: FACS on human α1-transfected K562 cells.

Test [2] has as its target T2, human α1-I domain-GST fusion protein (human, UniProt P56199 151-364).
T2 construct: Expressed in E. coli; not shown: glutathione S-transferase of vector pGEX4t-i (Pharmacia), with a thrombin cleavage site at the junction
Kind of test: ELISA on immobilized α1 I domain-GST (±0.058 in r14).

Test [3] has as its target T2, human α1-I domain-GST fusion protein. Kind of test: ELISA; competition with biotinylated mAQC2 (competitor) for immobilized α1 I domain-GST.
Test [4] shares this target. Kind of test: electrochemiluminescence; inhibition of α1 I domain-GST binding to type IV collagen beads (±0.007 in r14).
Test [5] concerns the target T3, α1β1 integrin (VLA-1) in lysate of α1-transfected K562 cells (human, UniProt P56199 29-1179; P05556 21-798). Kind of test: electrochemiluminescence; inhibition of α1β1 (K562-α1 lysate) binding to type IV collagen beads (±0.002 in r14).
For test [6], the target named is T1, human VLA-1 (α1β1 integrin) on K562 …. Kind of test: FACS of VLA-1-expressing K562α1 cells stained with conditioned medium of transfected 293-EBNA cells; mean MFI normalized to chAQC2 blocked; average of two transfections.
The target of test [7] is T2, human α1-I domain-GST fusion protein. Kind of test: ELISA on immobilized α1 I domain-GST (±0.015 in r12).
Test [8] shares this target. Kind of test: electrochemiluminescence; inhibition of α1 I domain-GST binding to type IV collagen beads (±0.011 in r12).
Test [9] deals with T3, α1β1 integrin (VLA-1) in lysate of …. Kind of test: electrochemiluminescence; inhibition of α1β1 (K562-α1 lysate) binding to type IV collagen beads (±0.014 in r12).

B1: chAQC2 (murine-human chimeric AQC2, blocked light chain; pAND099 + pAND102) (antibody, V domains shown)
VH: DVKVVESGGGLVKPGGSLKLACAASGFSFSRYTMSWVRQIPEKRLEWVATISGGGHTYYLDSVKGRFTISRDNAKNTLYLQMSSLRSEDTAMYYCTRGFGDGGYFDVWGQGTTVTVSS
VL: QIVLTQFPALMSASPGEKVTMTCSASSSVNHMFWYQQKPKSSPKPWIYLTSNLASGVPARFSGSGSGTSYSLTISSMEAEDAATYYCQQWSGNPWTFGGGTKLEIK
notes: also called Chimera
As to B1, the EC50 turned out to be 0.25 nM in [1] and 0.176 nM in test [2]. Moreover, the IC50 was 30 nM in [3], 0.027 nM in test [4] and 0.071 nM in [5]. Also, the “Relative MFI” value in test [6] is 1 relative to chAQC2 blocked.

B2: monoclonal antibody AQC2 (mAQC2) (antibody, mouse IgG1, V domains shown)
VH: B1 VH
VL: B1 VL
notes: Hybridoma ATCC PTA3273; also called murine AQC2
B2 returned an EC50 in test [7] of 0.061 nM. Further, the IC50 came to 38 nM in test [3], 0.029 nM in test [8] and 0.0726 nM in test [9].
